Data from the RNAGym collection of RNA variant scans (doi:10.7554/elife.90254).

B1: LINE1-full (parent)
chain: UACGUAGGUGGUUUUCCCCUGAUAGUGCUAAGGGGGCCUGGAAGUUUGGACUGGGCAGAGCUCAACACAGCGUGGCAAAGUGGCUGUGGCUAGACUGCCUCUCUGGAUUCCUCGUCACUCAGCAGGGCAUCUCUGAGAGAAAUGCC

Variants of: B1
Assay: self-cleavage, relative activity (ratio to wild type); higher = more cleavage; in vitro, sequencing; the parent is a self-cleaving ribozyme

Row | Variant | self-cleavage
1 | U91A A138G | 0.84
2 | U87A U91C | 0.07
3 | G86A A141U | 0.13
4 | U87G A140G | 0.19
5 | U85G C128U | 0.39
6 | C90A C99G | 0.02
7 | U87C U134G | 0.31
8 | U87C U134C | 0.11
9 | G89A U104A | 0.01
10 | U91A U100C | 0.96
11 | G89A C133U | 0.03
12 | U87A U112C | 0.07
13 | G86A U115C | 0.12
14 | U91A A129U | 0.86
15 | C90U U100A | 0.04
16 | G88A A107C | 0.03
17 | C84U G114U | 0.15
18 | U85C C118U | 0.1
19 | U87C A94U | 0.05
20 | U87C A94G | 0.14
21 | U85C G93U | 0.06
22 | G89C U119A | 0.02
23 | U87C C120A | 0.18
24 | U87C C110A | 0.06

Row | Variant | self-cleavage
25 | G86A U109G | 0.07
26 | U85C U96C | 0.2
27 | U85C U96A | 0.07
28 | U85C U100C | 0.28
29 | G88A C146U | 0.07
30 | G86A U91C | 0.07
31 | U91A G126A | 0.43
32 | C90A U96C | 0.04
33 | U87A A117G | 0.09
34 | U85A C101U | 0.06
35 | U85A C111A | 0.06
36 | U85C C146U | 0.27
37 | U85C C146A | 0.48
38 | C84U U85C | 0
39 | U87G A94U | 0.13
40 | C90U U130C | 0.04
41 | U87G A141G | 0
42 | U85A G114A | 0.08
43 | C90G A142G | 0.05
44 | U85C A92U | 0
45 | U87G U108C | 0.16
46 | G86U A129U | 0.09
47 | C84U U100A | 0.07
48 | C90U A94U | 0.04

Row | Variant | self-cleavage
49 | G86A A94G | 0.06
50 | C90U U115C | 0.06
51 | G89U A117G | 0
52 | C90G A129G | 0.04
53 | G89A A140G | 0.06
54 | U87C A138G | 0.28
55 | C90U A142G | 0.03
56 | U85C U115C | 0.21
57 | U87A U134A | 0.13
58 | C84G U132C | 0.11
59 | U87A U96C | 0.12
60 | U87A U96A | 0.07
61 | G88A G122A | 0.07
62 | G88A G114A | 0.08
63 | U85C G144U | 0.19
64 | G86A U102C | 0.18
65 | G88A U130C | 0.01
66 | U85C A140U | 0.16
67 | U87A A136G | 0.08
68 | C84U A121U | 0.11
69 | G89A G137A | 0.05
70 | U87C U109A | 0.15
71 | U87C U109C | 0.27
72 | U87A G127U | 0.06

Row | Variant | self-cleavage
73 | U87A G127A | 0.04
74 | C90A A141G | 0.03
75 | G89U G125A | 0.05
76 | U85C U109A | 0.12
77 | U85C U109C | 0.17
78 | G86A U119A | 0.16
79 | U85C | 0.18
80 | U85G | 0.13
81 | U85A | 0.09
82 | U85C U112A | 0.19
83 | U85C U112C | 0.18
84 | U87C G137U | 0.27
85 | U87C G137A | 0.5
86 | U87G U104A | 0.2
87 | G89U A124G | 0.16
88 | U87C A142G | 0.25
89 | U87C C146A | 0.2
90 | U87A C113A | 0.06
91 | U87C U102A | 0.12
92 | U87G | 0.21
93 | U87C | 0.22
94 | U87A | 0.08
95 | G88A U96C | 0.02
96 | C84U U119C | 0.12

Row | Variant | self-cleavage
97 | U85A C120A | 0.07
98 | U85A C120U | 0.2
99 | U85C A142G | 0.17
100 | U85C A142U | 0.21
101 | U85C A136C | 0.24
102 | U85C A136G | 0.2
103 | U85C A136U | 0.24
104 | U85A U132A | 0.08
105 | U87A A121U | 0.09
106 | U87A A121G | 0.1
107 | G89A U109G | 0.04
108 | G88A U100A | 0.07
109 | U85A A94G | 0.15
110 | C90U A138G | 0.04
111 | G89C A124G | 0.08
112 | U91A U130C | 0.79
113 | U85C G105U | 0.14
114 | G89C G122C | 0.02
115 | C84U U108C | 0.15
116 | U85A A141G | 0.07
117 | U85A A141U | 0.07
118 | U87A C99U | 0.12
119 | U85C U108C | 0.22
120 | G88A A136G | 0.07

Row | Variant | self-cleavage
121 | G88C A140G | 0
122 | U87A U100C | 0.09
123 | G86A U134C | 0.08
124 | G88A U134A | 0.06
125 | G88A U134C | 0.08
126 | U87G A129G | 0.27
127 | U85A A107G | 0.08
128 | U85C U132G | 0.28
129 | U85C U132C | 0.24
130 | U85G A140G | 0.19
131 | G89U A142G | 0.03
132 | G89A U112C | 0.05
133 | G89C U130C | 0.09
134 | G89A A121G | 0.09
135 | U87G A107G | 0
136 | C90A A117C | 0.05
137 | G89A | 0.04
138 | G89C | 0.04
139 | G89U | 0.01
140 | U85A U109C | 0.07
141 | U85A U109A | 0.06
142 | U85A A140U | 0.09
143 | U85A A140G | 0.08
144 | U85A A129U | 0.12

Row | Variant | self-cleavage
145 | U85A A129G | 0.07
146 | U87C C145A | 0.27
147 | G89A A107G | 0.01
148 | C84G U104C | 0.11
149 | C84U U109C | 0.1
150 | G89A A117U | 0.04
151 | U91A U134A | 0.18
152 | U91A U134C | 0.45
153 | U91A U108C | 0.73
154 | U87C G106A | 0.21
155 | U87C G106U | 0.26
156 | G89A U132C | 0.06
157 | C84U U96C | 0.04
158 | G86A U87C | 0.04
159 | U87C U91G | 0.08
160 | G88U U104C | 0.05
161 | G88C G105A | 0.06
162 | U85A U100A | 0.05
163 | G88A A140U | 0.07
164 | U87C G88A | 0.09
165 | U85C A117C | 0.25
166 | U87C U112A | 0.16
167 | U87C U112C | 0.23
